The series can be described thus: yeast display, Sf9 membrane polyspecificity reagent, FACS + sequencing; frameworks hold sequencing errors. The procedure, abridged:
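Galactose induction of a Saccharomyces cerevisiae BJ5465 synthetic nanobody display library ran 36–48 hours. The cells were then stained for 1 hour at 4 °C with 10% biotinylated, detergent-solubilized Sf9 membrane reagent, pulled down on streptavidin microbeads and FACS-sorted into low and high (top ~1%) gates on expression and reagent-binding fluorescence. Labels for polyreactivity follow the gate of origin.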
As to “QVQLVESGGGLVQAGGSLRLSCAASGSIFGVYAMGWYRQAPGKERELVASITSGSSTNYADSVKGRFTISRDNAKNTVYLQMNSLKPEDTAVYYCAAGRTSRSRRYYRFFYAGDYWGQGTQVTVSS”, the “polyreactivity (PSR sort gate)” value was “low polyreactivity”.
The result for “QVQLVESGGGLVQAGGSLRLSCAASGSIFGVYAMGWYRQAPGQERELVAVITWSDGGTYYADSVKGRFTISRDNAKNTVYLQMNSLKPEDTAVYYCAKERYDYSYDYWGQGTQVTVSS” reads “high polyreactivity”.
As for “QVQLVESGGGLVQAGGSLRLSCAASGSIFGWYAMGWYRQAPGKERELVAAISSSDGSTYYADSVKGRFTISRDNAKNTVYLQMNSLTPEDTAVYYCAKVYIRQNLAPYGYWGQGTQVTVSS”, the “polyreactivity (PSR sort gate)” value is given as “low polyreactivity”.
The same measure for “QVQLVESGGGLVQAGGSLRLSCAASGSIFGWYAMGWYRQAPGKERELVATISSGGSTSYADSVKGRFTISRDNAKNTVYLQMKSLKPEDTAVYYCAADIYPDWIYLLYGYWGQGTQVTVSS”: “low polyreactivity”.
As for “QVQLVESGGGLVQAGGSLRLSCAASGSIFGWYVMGWYRQAPGKERELVAAISSVGSTYYADSVKGRFTISRDNAKNTVYLQMNSLKPEDTAVYYCAADRVWGTPQAYVPSQFDYWGQGTQVTVSS”, the “polyreactivity (PSR sort gate)” value is “low polyreactivity”.
The same measure for “QVQLVESGGGLVQAGGSLRLSCAASGSIFGYEMGWYRQAPGRERELVAAISFSGVSTYYADSVKGRFTISRDNAKNTVYIQMNSLKQEDTAVYNCNAYSDGDEDYWVQGTQVTVSS”: “low polyreactivity”.
Regarding “QVQLVESGGGLVQAGGSLRLSCAASGSIFGYNAMGWYRQAPGKERELVAAISLTTGSTYYADSVKGRFTISRDNAKNTVYLQMNCLNPEDTAVYYCAAVDADYYYWGQGTQVTVSS”, the “polyreactivity (PSR sort gate)” value was “high polyreactivity”.
Take “QVQLVESGGGLVQAGGSLRLSCAASGSIFGYNVMGGDRQAPGKEREFVARINYIGSSTYYADSVKGRFTISRDNAKNTVYLQMNSLKPEDTADYYCNADNARGRSGVRRYYWGQGTQVTVSS”: the “polyreactivity (PSR sort gate)” value was “high polyreactivity”.
Turning to “QVQLVESGGGLVQAGGSLRLSCAASGSIFGYVMGWSRQAPGKERELVAAISSGGSTDYADSVKGRFTISRDNAKNTVYLQMNSLKPEDTAVYYCAADTDNGYTYYYWGQGTQVTVSS”, the “polyreactivity (PSR sort gate)” value is “low polyreactivity”.
As for “QVQLVESGGGLVQAGGSLRLSCAASGSIFGYYAMGCYRQAPGKERELVAAITNGGSTSYADSVKGRFTISRDNAKNTVDLQMNSLKPEETSVYYCNARFKRLFGRADDYWGQGTQVTVSS”, the “polyreactivity (PSR sort gate)” value is “low polyreactivity”.
The result for “QVQLVESGGGLVQAGGSLRLSCAASGSIFGYYAMGGYRQAPGKERELVAAISVNGGRTYYADSVKGRFTISRDNAKNTVYLQMNSLKPEDTAVYYCAAELVDYITFRGDYYYWGQGTQVTVSS” reads “high polyreactivity”.
The same measure for “QVQLVESGGGLVQAGGSLRLSCAASGSIFGYYAMGWYRPAPGKERQLVAAIDSRGGSTYYADSVKGRFTISRDYEKNTVYLQMNSLKPEDTAVYYWAARLRYPRRGQGDNYWGQGTQVTVSS”: “low polyreactivity”.
The result for “QVQLVESGGGLVQAGGSLRLSCAASGSIFGYYAMGWYRQAPGKERELVAAIDSGGVSTYYADSVKGRFTISRDIAKNTVYLQMNSLKAEDTAVYYCAKRGPVRKTAYDYWGQGTQVTVSS” reads “low polyreactivity”; that for “QVQLVESGGGLVQAGGSLRLSCAASGSIFGYYAMGWYRQAPGKERELVAAISRRGGRTYYADSVKGRFTISRDNAKNTVYLQMNSLKPEDTAVYYCAAAVSVSASPYTGFDYWGQGTQVTVSS”, “high polyreactivity”; that for “QVQLVESGGGLVQAGGSLRLSCAASGSIFGYYAMGWYRQAPGKERELVAAISYRGGSTYYADSVKGRFTISRDNAKNTVYLQMNSLKPEDTAVYYCNAPFLGAHHYGYEYWGQGTQVTVSS”, “high polyreactivity”.
Turning to “QVQLVESGGGLVQAGGSLRLSCAASGSIFGYYAMGWYRQAPGKERELVAAITRGARTYYADSVKGRFTISRDNAKNTVYLQMNSLKPEDTAFYYCNRVPYYEGGNGSWGQGTQVTVSS”, the “polyreactivity (PSR sort gate)” value is recorded as “high polyreactivity”.
The same measure for “QVQLVESGGGLVQAGGSLRLSCAASGSIFGYYAMGWYRQAPGKERELVASISGSGGTTYYADSVKGRFTISRDNAKNTVYLQMNSLKPEDTAVYYCAARRSMYGYPFVTSRRGYWGHGTQVTVSS”: “high polyreactivity”; for “QVQLVESGGGLVQAGGSLRLSCAASGSIFGYYAMGWYRQAPGKERELVATITWGGGSTYADSVKGRFTISRDNAKNTVYLQMNSLKPEDTAVYYCNAGYRYTSAQVTWEYDYWGQGTQVTVSS”: “low polyreactivity”.
The result for “QVQLVESGGGLVQAGGSLRLSCAASGSIFGYYAMGWYRQAPGTERELVAAITTGGSTSYADSVKGRFTISRDNAKNTVYLQMNSLKPEDTAVYYCAARPHHGWLEYGSAGLGYWGQGTQVTVSS” reads “low polyreactivity”; that for “QVQLVESGGGLVQAGGSLRLSCAASGSIFGYYAMGWYRQAPGTERELVATITWGGGSTYADSVKGRFTISRDNAKNTVYLQMNSLKPEDTAVYYCNAGYRYTSAQVTWEYDSWGQGTQVTVSS”, “low polyreactivity”.
The result for “QVQLVESGGGLVQAGGSLRLSCAASGSIFGYYAMGWYTLAPGKERELVASISFSGGSTYYADSVKGRFTISRDNAKNTVYLQMNSLKPEDTAVYYCAKRPRFVYWKHGYWGQGTQVTVSS” reads “high polyreactivity”; that for “QVQLVESGGGLVQAGGSLRLSCAASGSIFGYYAMVWKRQAPGKESELVAAMNYSGVSTYYADSVKGRFTISRDNAKNTVYLQMNSLKPEDSAVYYCARDIRRKGFRYDYWGQGTQVTVSS”, “high polyreactivity”.
On to “QVQLVESGGGLVQAGGSLRLSCAASGSIFGYYARGWYRQASGKESELVADITSSGSTYYADSVKGRFTISRDNAKNTVYLQMNSLKPEDTAVYYCAADQYFLGSIDGFEYWGQRTQVTVSS”, for which the “polyreactivity (PSR sort gate)” value is reported as “low polyreactivity”.
The result for “QVQLVESGGGLVQAGGSLRLSCAASGSIFGYYDMGWYRQAPGKEREFVAASTFRGGRTYYADSVKGRFTISRDNEKNTVYIQMYSLKPEDTAVDFCAAGYHHRWGNYWGQGTQVTVSS” reads “high polyreactivity”; that for “QVQLVESGGGLVQAGGSLRLSCAASGSIFGYYSMGWYRQAPGKERELVATITWGGGSTYADSVKGRFTISRDNAKNTVYLQMNSLKPEDTAVYYCNAGYRYTSAQVTWEYDYWGQGTQVTVSS”, “low polyreactivity”.
The result for “QVQLVESGGGLVQAGGSLRLSCAASGSIFGYYSMGWYRQATGKERELVATITWGGGSTYADSVKGRFTISRDNAKNTVYLQMNSLKPEDTAVYYCNAGYRYTSAQVTWEYDYWGQGTQVTVSS” reads “low polyreactivity”; that for “QVQLVESGGGLVQAGGSLRLSCAASGSIFHPYAMGWYRQAPGKERELVAAISSSTGRTYYADSVKGRFTISRDNAKNTVYLQMNSLKPEDTAVYYCAARKKYSEFDYWGQGTQVTVSS”, “high polyreactivity”.
The result for “QVQLVESGGGLVQAGGSLRLSCAASGSIFHPYTMGWSRQAPGKERELVAAISWSGGRTYYADSVKGRFTISRDNAKNTVYLQMNSLKPEDTAVYYCAADVTLWYDSWGQGTQVTVSS” reads “low polyreactivity”; that for “QVQLVESGGGLVQAGGSLRLSCAASGSIFHSYAMGWYRQAPGKEREFVASITQRVGRTNYADSVKGRFTISRDNAKNTVYLQMISLKPEDTAVYYCAASSWRLYYRRDSWGQGTQVTVSS”, “high polyreactivity”.
“QVQLVESGGGLVQAGGSLRLSCAASGSIFHSYAQGWYRQAPGKERELVASITASGDSTYYADSVKGRFTISRDNAKNTVYLQMNSLKPEDTAVYYCNTQAVYGGGEGGYDYWGQGTQVTVSS”: the “polyreactivity (PSR sort gate)” value is reported as “low polyreactivity”.
